Here are results for two molecules from article PMC3954457 (The Journal of biological chemistry, 2006).

Experiment [1] addresses X di-domain (XDD) of human E3 binding protein: lipoyl domain and subunit binding domain (human). The experiment is described as follows: ITC. In general terms: In ITC the heat of successive injections is recorded.
Experiment [2] addresses T1, human dihydrolipoamide dehydrogenase (E3) (human, UniProt P09622 36-509).
T1 sequence: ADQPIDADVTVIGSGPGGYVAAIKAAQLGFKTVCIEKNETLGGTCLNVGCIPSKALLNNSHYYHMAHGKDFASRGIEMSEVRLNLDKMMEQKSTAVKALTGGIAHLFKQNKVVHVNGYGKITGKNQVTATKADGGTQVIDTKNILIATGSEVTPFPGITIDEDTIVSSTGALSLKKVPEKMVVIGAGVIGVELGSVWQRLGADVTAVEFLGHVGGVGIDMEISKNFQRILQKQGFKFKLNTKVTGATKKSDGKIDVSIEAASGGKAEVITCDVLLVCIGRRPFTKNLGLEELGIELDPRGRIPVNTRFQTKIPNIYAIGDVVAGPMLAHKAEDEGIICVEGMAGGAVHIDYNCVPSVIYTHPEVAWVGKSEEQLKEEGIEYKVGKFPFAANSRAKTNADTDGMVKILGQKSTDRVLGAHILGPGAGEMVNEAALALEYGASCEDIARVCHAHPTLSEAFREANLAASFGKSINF
The experiment in a line: native gel or EMSA. A general note: Mobility shift assays separate free from complexed probe on a gel.

As a reminder, the stoichiometry N is a count of units in the complex or per binding partner. In the case of “human dihydrolipoamide dehydrogenase (E3) (from UniProt P09622 36-509) (enzyme)”, in experiment [1], the dH is -12.1 kcal/mol and the stoichiometry N is 0.5 E3:XDD.

B1: X subunit binding domain (XSBD) of human E3 binding protein (domain or fragment)
chain: QISIPVKKEHIPGTLRFRLSPAARNILEKHSLDASQGTATGPRGIFTKEDALKLVQLKQTGKITE
Turning to B1, in experiment [2], the “stoichiometry N” value was 2 XSBD:E3.
